# From patent US11534461B2, “High affinity merkel cell polyomavirus T antigen-specific TCRS and uses thereof” (priority 2016, dated 2022)
# Several values for one entry are separate records, joined by “and”; a condition that tells them apart may be missing. Equal values may be shown once.
# T1: Merkel cell polyomavirus T antigen (common to large and small T antigen) peptide on HLA-A*02:01 (human)
# T1 peptide: KLLEIAPNC
# T2: Merkel cell polyomavirus T antigen (common to large and small T antigen) peptide on HLA-A*02:01 (human)
# T2 peptide: KLLEIAPNC
# T3: Merkel cell polyomavirus T antigen KLL epitope homolog (C-terminal cysteine replaced by alanine) peptide on … (human)
# T3 peptide: KLLEIAPNA
# B1: w683 clonotype 2 (TCR)
# alpha TRAV12-1*01 TRAJ43*01 CDR3: CVLNNNDMRF
# beta TRBV6-5*01 TRBJ1-2*01 CDR3: CASRSQNYYGYTF
# B2: w876 clonotype 19 (TCR)
# alpha TRAV12-1*01 TRAJ45*01 CDR3: CVVYTGYSGGGADGLTF
# beta TRBV10-2*01 TRBJ2-2*01 CDR3: CASSGQNTGELFF
# B3: w876 clonotype 5 (TCR)
# alpha TRAV38-1*01 TRAJ23*01 CDR3: CAYNQGGKLIF
# beta TRBV10-2*01 TRBJ2-2*01 CDR3: CASSVLNTGELFF
# B4: w876 clonotype 9 (TCR)
# alpha TRAV12-1*01 TRAJ43*01 CDR3: CVGNNNDMRF
# beta TRBV10-3*01 TRBJ2-2*01 CDR3: CAISARDQNTGELFF
# B5: w876 clonotype 6 (TCR)
# alpha TRAV12-1*01 TRAJ3*01 CDR3: CVVPLYSSASKIIF
# beta TRBV6-1*01 TRBJ1-1*01 CDR3: CASSDTPDLNTEAFF
# B6: w876 clonotype 26 (TCR)
# alpha TRAV12-1*01 TRAJ45*01 CDR3: CVVYTGYSGGGADGLTF
# beta TRBV13*02 TRBJ2-1*01 CDR3: CASSSGTSGGLNYNEQFF
# B7: w876 clonotype 20 (TCR)
# alpha TRAV10*01 TRAJ45*01 CDR3: CVVSAGINGADGLTF
# beta TRBV12-4*01 TRBJ2-1*01 CDR3: CASSPWDEQFF
# B8: w876 clonotype 21 (TCR)
# alpha TRAV3*01 TRAJ40*01 CDR3: CAVRDNSGTYKYIF
# beta TRBV13*02 TRBJ2-1*01 CDR3: CASSSGTSGGLTYNEQFF
# B9: w678 clonotype 5 (TCR)
# alpha TRAV38-1*01 TRAJ43*01 CDR3: CAFRVSHDMRF
# beta TRBV10-2*01 TRBJ2-3*01 CDR3: CASSSGNPSTDTQYF
# B10: w876 clonotype 12 (TCR)
# alpha TRAV3*01 TRAJ40*01 CDR3: CAVRDNSGTYKYIF
# beta TRBV7-2*04 TRBJ2-3*01 CDR3: CASSLAGLAGTDTQYF
# B11: MCC1 (TCR, V domains shown)
# Valpha: RKEVEQDPGPFNVPEGATVAFNCTYSNSASQSFFWYRQDCRKEPKLLMSVYSSGNEDGRFTAQLNRASQYISLLIRDSKLSDSATYLCVVATYSGGGADGLTFGKGTHLIIQP
# Vbeta: DAGITQSPRYKITETGRQVTLMCHQTWSHSYMFWYRQDLGHGLRLIYYSAAADITDKGEVPDGYVVSRSKTENFPLTLESATRSQTSVYFCASSSGNPSTDTQYFGPGTRLTVL
# B12: w876 clonotype 17 (TCR)
# alpha TRAV12-1*01 TRAJ37*02 CDR3: CVVYGSSNTGKLIF
# beta TRBV7-2*04 TRBJ2-1*01 CDR3: CASSLAGLANNEQFF
# B13: w876 clonotype 11 (TCR)
# alpha TRAV12-1*01 TRAJ45*01 CDR3: CVVYTGYSGGGADGLTF
# beta TRBV10-3*01 TRBJ2-2*01 CDR3: CAIHEGDSNTGELFF
# B14: w830 clonotype 5 (TCR)
# alpha TRAV12-1*01 TRAJ43*01 CDR3: CVVNANDMRF
# beta TRBV10-3*01 TRBJ2-2*01 CDR3: CAIRARDQNTGELFF
# B15: w876 clonotype 27 (TCR)
# alpha TRAV3*01 TRAJ11*01 CDR3: CALTGYSTLTF
# beta TRBV19*01 TRBJ2-1*01 CDR3: CASRSQLAVLNEQFF
# B16: w876 clonotype 16 (TCR)
# alpha TRAV38-1*01 TRAJ23*01 CDR3: CAYNQGGKLIF
# beta TRBV19*01 TRBJ2-1*01 CDR3: CASSTLSGTHNEQFF
# B17: w830 clonotype 4 (TCR)
# alpha TRAV12-1*01 TRAJ43*01 CDR3: CVLNNNDMRF
# beta TRBV19*01 TRBJ1-5*01 CDR3: CASSILGASNQPQHF
# B18: w678 clonotype 2 (TCR)
# alpha TRAV38-1*01 TRAJ43*01 CDR3: CAFRVSHDMRF
# beta TRBV19*01 TRBJ2-1*01 CDR3: CASSIIAGSSYNEQFF
# B19: w876 clonotype 23 (TCR)
# alpha TRAV12-3*01 TRAJ57*01 CDR3: CAMSVAQGGSEKLVF
# beta TRBV6-6*01 TRBJ2-7*01 CDR3: CASSYQIGLSYEQYF
# B20: w683 clonotype 1 (TCR)
# alpha TRAV12-1*01 TRAJ45*01 CDR3: CVVALYSGGGADGLTF
# beta TRBV6-5*01 TRBJ1-2*01 CDR3: CASRSQNYYGYTF
# B21: w876 clonotype 10 (TCR)
# alpha TRAV12-1*01 TRAJ37*02 CDR3: CVVYGSSNTGKLIF
# beta TRBV10-3*01 TRBJ2-2*01 CDR3: CAIRRQDQNTGELFF
# B22: w876 clonotype 2 (TCR)
# alpha TRAV12-1*01 TRAJ45*01 CDR3: CVVTEYSGGGADGLTF
# beta TRBV10-3*01 TRBJ2-2*01 CDR3: CASRGQNTGELFF
# B23: w876 clonotype 18 (TCR)
# alpha TRAV14 TRAJ13*01 CDR3: CAMREAQSGGYQKVTF
# beta TRBV12-4*01 TRBJ2-3*01 CDR3: CASSFGSGTKDTQYF
# B24: w876 clonotype 13 (TCR)
# alpha TRAV12-1*01 TRAJ45*01 CDR3: CVVTDTSGGGADGLTF
# beta TRBV7-2*04 TRBJ2-3*01 CDR3: CASSLAGLAGTDTQYF
# B25: w678 clonotype 1 (TCR)
# alpha TRAV12-1*01 TRAJ43*01 CDR3: CVLNNNDMRF
# beta TRBV10-3*01 TRBJ2-2*01 CDR3: CAIRQFDANTGELFF
# B26: w876 clonotype 14 (TCR)
# alpha TRAV12-1*01 TRAJ27*01 CDR3: CVVPSAGKSTF
# beta TRBV2*03 TRBJ2-5*01 CDR3: CASSEFAGQETQYF
# B27: w876 clonotype 3 (TCR)
# alpha TRAV19*01 TRAJ40*01 CDR3: CALGGGTFTSGTYKYIF
# beta TRBV9*02 TRBJ2-2*01 CDR3: CASSVEDYTGELFF
# B28: w876 clonotype 29 (TCR)
# alpha TRAV12-1*01 TRAJ3*01 CDR3: CVVPLYSSASKIIF
# beta TRBV10-2*01 TRBJ2-2*01 CDR3: CASSVLNTGELFF
# B29: w876 clonotype 4 (TCR)
# alpha TRAV12-1*01 TRAJ45*01 CDR3: CVVYTGYSGGGADGLTF
# beta TRBV10-2*01 TRBJ2-2*01 CDR3: CASSVLNTGELFF
# B30: w830 clonotype 2 (TCR)
# alpha TRAV38-1*01 TRAJ27*01 CDR3: CALTSGSRLTF
# beta TRBV19*01 TRBJ1-5*01 CDR3: CASSIMLYSNQPQHF
# B31: w678 clonotype 3 (TCR)
# alpha TRAV12-1*01 TRAJ45*01 CDR3: CVVATYSGGGADGLTF
# beta TRBV19*01 TRBJ2-1*01 CDR3: CASSIIAGSSYNEQFF
# B32: w830 clonotype 3 (TCR)
# alpha TRAV38-1*01 TRAJ34*01 CDR3: CAYPSTDKLIF
# beta TRBV19*01 TRBJ1-5*01 CDR3: CASSILGASNQPQHF
# B33: w876 clonotype 1 (TCR)
# alpha TRAV12-1*01 TRAJ45*01 CDR3: CVVGEYSGGGADGLTF
# beta TRBV28*01 TRBJ2-1*01 CDR3: CAIRAGASYNEQFF
# B34: w876 clonotype 8 (TCR)
# alpha TRAV12-1*01 TRAJ3*01 CDR3: CVVYASKIIF
# beta TRBV6-1*01 TRBJ1-1*01 CDR3: CASSDTPDLNTEAFF
# Target: T1, Merkel cell polyomavirus T antigen …
# Assay: multimer staining
row,Binder,binding result
1,B1,recognises
2,B2,recognises
3,B3,recognises
4,B4,recognises
5,B5,recognises
6,B6,recognises
7,B7,recognises
8,B8,recognises
9,B9,recognises
10,B10,recognises
11,B11,recognises
12,B12,recognises
13,B13,recognises
14,B14,recognises
15,B15,recognises
16,B16,recognises
17,B17,recognises
18,B18,recognises
19,B19,recognises
20,B20,recognises
21,B21,recognises
22,B22,recognises
23,B23,recognises

# Target: T2, Merkel cell polyomavirus T antigen …
# Assay: multimer staining
row,Binder,binding result
1,B1,recognises
2,B2,recognises
3,B3,recognises
4,B4,recognises
5,B5,recognises
6,B11,recognises
7,B13,recognises
8,B14,recognises
9,B16,recognises
10,B17,recognises
11,B20,recognises
12,B21,recognises
13,B22,recognises
14,B23,recognises

# Target: T1, Merkel cell polyomavirus T antigen …
# Assay: IFN-g ELISA; COS-7 given HLA-A*02:01 and tLTAg plasmids (antigen processed); T cell clone or line
# Protocol: IFN-γ in cell culture supernatants was assayed by ELISA according to manufacturer's recommendations (Human IFN gamma ELISA Ready-SET-Go Kit, affymetrix). […] Supernatants were assayed by ELISA as described above. […] After incubating for 24 hours, wells were transfected using FuGENE HD (Promega) at a 6:1 ratio of transfection reagent to DNA with 25 ng HLA-A*02:01 and limiting dilution of pDEST103-GFP-tLTAg (25-0.08 ng) plus irrelevant DNA (pcDNA-6/myc-His C, Gateway) to a total of 25 ng. 48 hours after transfection, 10^4 viable KLL-specific T cells in TCM were added to target wells in duplicate. […] Transfected COS-7 cells were harvested at 48 and 72 hours post-transfection to quantitate transfection efficiency by flow cytometry.
row,Binder,EC50 of tLTAg plasmid DNA
1,B24,3900 ng/mL
2,B25,320 ng/mL
3,B26,5400 ng/mL
4,B27,11000 ng/mL
5,B28,3300 ng/mL
6,B29,14000 ng/mL
7,B30,140000 ng/mL
8,B31,1000 ng/mL
9,B32,270000 ng/mL
10,B33,5600 ng/mL
11,B34,4200 ng/mL

# Target: T3, Merkel cell polyomavirus T antigen KLL …
# Assay: IFN-g ELISA; T2 + peptide titration; T cell clone or line
row,Binder,EC50 of peptide
1,B1,0.21 ng/mL
2,B2,0.92 ng/mL
3,B3,0.11 ng/mL
4,B4,0.12 ng/mL and 0.24 ng/mL
5,B5,0.015 ng/mL and 0.035 ng/mL
6,B9,0.11 ng/mL and 0.054 ng/mL
7,B25,0.43 ng/mL and 0.5 ng/mL and 0.47 ng/mL
8,B11,0.0094 ng/mL and 0.028 ng/mL
9,B27,0.12 ng/mL
10,B28,0.12 ng/mL and 0.16 ng/mL
11,B16,0.12 ng/mL
12,B17,1.1 ng/mL
13,B18,0.017 ng/mL and 0.012 ng/mL
14,B29,0.31 ng/mL
15,B31,0.022 ng/mL and 0.013 ng/mL
16,B21,0.7 ng/mL
17,B33,0.31 ng/mL
18,B22,1.2 ng/mL
